One block for each binder: values may come before it.
Legend:
[1] = molecular target: T1, soybean trypsin inhibitor (SBTI), P01070; experiment: affinity chromatography of KCl-extracts of plantar corneocytes on covalently linked soybean trypsin inhibitor
T1 chain: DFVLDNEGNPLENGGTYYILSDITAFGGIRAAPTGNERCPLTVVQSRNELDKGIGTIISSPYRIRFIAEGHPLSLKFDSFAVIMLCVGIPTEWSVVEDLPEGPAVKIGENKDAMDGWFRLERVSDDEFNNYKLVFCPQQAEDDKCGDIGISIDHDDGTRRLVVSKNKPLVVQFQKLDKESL

[2] = molecular target: desmoglein I (DG I) (Homo sapiens (Human)) (UniProt Q02413)
desmoglein I (DG I) (Homo sapiens (Human)), sequence (Q02413 50-1049 limits assumed): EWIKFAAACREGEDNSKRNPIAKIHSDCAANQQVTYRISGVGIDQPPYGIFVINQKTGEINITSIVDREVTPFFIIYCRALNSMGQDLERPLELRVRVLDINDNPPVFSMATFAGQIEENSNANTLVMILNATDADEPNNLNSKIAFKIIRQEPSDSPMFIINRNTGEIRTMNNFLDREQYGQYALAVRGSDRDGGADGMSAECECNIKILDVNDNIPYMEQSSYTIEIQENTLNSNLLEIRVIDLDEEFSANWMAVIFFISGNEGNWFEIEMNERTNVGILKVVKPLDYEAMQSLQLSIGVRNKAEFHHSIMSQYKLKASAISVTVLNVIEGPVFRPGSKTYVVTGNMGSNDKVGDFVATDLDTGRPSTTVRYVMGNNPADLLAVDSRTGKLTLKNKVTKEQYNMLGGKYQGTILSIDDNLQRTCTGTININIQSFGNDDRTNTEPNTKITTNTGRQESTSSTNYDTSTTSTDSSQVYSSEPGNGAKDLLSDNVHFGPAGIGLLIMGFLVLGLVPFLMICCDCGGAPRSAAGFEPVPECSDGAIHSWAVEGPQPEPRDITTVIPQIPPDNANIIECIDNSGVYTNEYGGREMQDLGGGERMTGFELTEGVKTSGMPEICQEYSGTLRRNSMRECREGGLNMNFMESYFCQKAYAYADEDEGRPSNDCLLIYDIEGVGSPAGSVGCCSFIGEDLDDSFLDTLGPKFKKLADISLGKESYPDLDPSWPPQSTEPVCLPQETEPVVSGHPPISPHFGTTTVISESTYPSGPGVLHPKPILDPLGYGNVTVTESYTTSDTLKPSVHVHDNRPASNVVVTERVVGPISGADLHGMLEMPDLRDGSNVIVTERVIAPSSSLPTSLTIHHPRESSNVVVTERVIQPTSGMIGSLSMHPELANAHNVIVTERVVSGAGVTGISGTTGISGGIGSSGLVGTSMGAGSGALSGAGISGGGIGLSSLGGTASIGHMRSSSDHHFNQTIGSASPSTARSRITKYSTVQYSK

B1: stratum corneum chymotryptic enzyme (SCCE), native, from human plantar stratum corneum (protein)
chain: IIDGAPCARGSHPWQVALLSGNQLHCGGVLVNERWVLTAAHCKMNEYTVHLGSDTLGDRRAQRIKASKSFRHPGYSTQTHVNDLMLVKLNSQARLSSMVKKVRLPSRCEPPGTTCTVSGWGTTTSPDVTFPSDLMCVDVKLISPQDCTKVYKDLLENSMLCAGIPDSKKNACNGDSGGPLVCRGTLQGLVSWGTFPCGQPNDPGVYTQVCKFTKWINDTMKKHR
- percent of the S-2586 hydrolyzing activity bound to the gel [1]: Approximately 90% of the S-2586 hydrolyzing activity was bound to the gel

- levels of the desmosome marker protein desmoglein I after 24 hours at 37° C., DG I (arbitrary units/mg squames) (arbitrary units/mg squames) [2]: 4060
B2: recombinant SCCE, active (trypsin-activated recombinant SCCE of Example 10; rSCCE of Examples 12 and 13) (enzyme)
chain: B1 chain
